Key:
[1] = target: PRMT1 E27 (N-terminal truncation lacking the first 26 amino acids) (UniProt Q99873); experiment: native gel or EMSA
[2] = target: PRMT1 S14 (N-terminal truncation lacking the first 13 amino acids) (UniProt Q99873); experiment: native gel or EMSA

Substance	stoichiometry N [1]	stoichiometry N [2]
PRMT1 E27 (N-terminal truncation lacking the first 26 amino acids) (from UniProt Q99873-3 27-353) (domain or fragment)	4	–
PRMT1 S14 (N-terminal truncation lacking the first 13 amino acids) (from UniProt Q99873-3 14-353) (domain or fragment)	–	4

From paper PMC11255602
